Values quoted from earlier work as cited in US20150182632A1, “ANTI-INTERLEUKIN-1 (IL-1) ANTIBODY USED AS A TARGETING AGENT TO TREAT ARTHRITIS AND OTHER DISEASES” (priority 2012, published 2015).

Molecular target: T1, IL-1 (Homo sapiens, UniProt P01584)
T1 construct: Patients with arthritis and other inflammatory diseases produce IL-1 which is present in the blood; host or cells: endogenous IL-1 of RA patients (in vivo)
Settings: several intravenous injections

ACZ885: anti-IL-1 monoclonal antibody
clinical response of RA patients: clinical improvement
